Data on four molecules can be found in patent US20250074980A1 (BRIGHAM AND WOMEN S HOSPITAL, published 2025).

The target in experiment [1] is T1, CEACAM3 (recombinant protein) (human, UniProt P40198 35-155, limits assumed).
T1 construct: construct not described
T1 sequence (looked up): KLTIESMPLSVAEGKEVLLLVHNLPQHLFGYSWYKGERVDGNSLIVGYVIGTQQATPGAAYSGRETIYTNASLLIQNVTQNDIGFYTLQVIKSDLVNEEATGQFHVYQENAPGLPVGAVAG
Nature of the experiment: SPR single-cycle kinetics, antibody captured on Protein A, CEACAM-3 injected at three rising concentrations. How it is done:
(§1) In order to assess the binding of the humanized, affinity matured reformatted lead IgGs, single-cycle kinetics analysis was performed on crude supernatants using a Biacore T200 running Biacore T200 Control Software V2.0.1 and Biacore T200 Evaluation Software V3.0. Antibodies were diluted in HBS-P+ to a final concentration of 0.5 μg/ml. At the start of each cycle, antibodies were loaded onto Fc2, Fc3 and Fc4 of the Protein A chip. IgGs were captured at a flow rate of 10 μl/min to give an immobilisation level (RL) of ˜100 RU (a level calculated to obtain a Rₘₐₓ of ˜50-150 RU once the analyte is bound). The surface was then allowed to stabilize. Single-cycle kinetics data was obtained with CEACAM1 as the analyte at a flow rate of 80 μl/min to minimize any potential mass transfer effects. Multiple repeats with the parent (VH1/Vκ8 S29A) antibody were performed to check the stability of the surface and analyte over the kinetic cycles. The signal from the reference channel Fc1 (no antibody) was subtracted from that of Fc2, Fc3 and Fc4 to correct for differences in non-specific binding to the reference surface. A three point, two-fold dilution range from 70 nM to 280 nM CEACAM1 without regeneration between each concentration was used. The signal from each antibody blank run (no CEACAM1) was subtracted to correct for differences in surface stability. The association phase for the three injections of increasing concentrations of CEACAM1 was monitored for 80 seconds each time and a single dissociation phase was measured for 150 seconds following the last injection of CEACAM1. Regeneration of the Protein A surface was conducted using two injections of 10 mM glycine-HCL pH 1.5 followed by a stabilization period of 250 seconds.
(§2) To further assess the binding selectivity of CEACAM1 antibodies VH0/Vκ0, CP08H03/Vκ8 S29A, CP08H03/CP08F05 CEACAM1 over other proteins, binding affinities to CEACAM1, CEACAM3, CEACAM5, and CEACAM6 were compared using single-cycle kinetics analysis performed as described above. Single cycle kinetics was conducted using CEACAM concentrations from 280 nM to 70 nM.

Experiment [2] concerns the target T2, CEACAM6 (recombinant protein) (human, UniProt P40199 35-320).
T2 construct: construct not described
T2 sequence (looked up): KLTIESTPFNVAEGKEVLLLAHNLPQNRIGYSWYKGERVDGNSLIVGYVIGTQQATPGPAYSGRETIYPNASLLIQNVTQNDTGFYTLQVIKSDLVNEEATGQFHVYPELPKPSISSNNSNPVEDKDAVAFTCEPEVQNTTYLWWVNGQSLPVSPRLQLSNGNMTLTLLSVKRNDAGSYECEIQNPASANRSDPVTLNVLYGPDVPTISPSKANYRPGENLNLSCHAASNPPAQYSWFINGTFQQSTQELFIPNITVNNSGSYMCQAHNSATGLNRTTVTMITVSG
Kind of experiment: SPR single-cycle kinetics, antibody captured on Protein A, CEACAM-6 injected at three rising concentrations [Cont.]. How it is done: as §1, §2

The target in experiment [3] is T3, His-tagged CEACAM1 (human, UniProt P13688 35-428).
T3 construct: 45 kDa SPR analyte; also called CEACAM1-HIS; CEACAM1 analyte
T3 sequence: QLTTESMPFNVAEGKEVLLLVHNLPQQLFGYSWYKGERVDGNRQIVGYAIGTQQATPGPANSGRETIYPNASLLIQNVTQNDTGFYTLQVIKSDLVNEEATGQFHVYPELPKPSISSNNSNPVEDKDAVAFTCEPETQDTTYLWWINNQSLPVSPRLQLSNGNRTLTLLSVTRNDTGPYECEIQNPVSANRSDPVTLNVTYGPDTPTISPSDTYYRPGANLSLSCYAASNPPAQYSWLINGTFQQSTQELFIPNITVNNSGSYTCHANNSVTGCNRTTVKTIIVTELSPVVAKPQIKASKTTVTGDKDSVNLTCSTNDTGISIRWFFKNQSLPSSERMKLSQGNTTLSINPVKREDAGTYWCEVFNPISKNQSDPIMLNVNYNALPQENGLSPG
Kind of experiment: SPR single-cycle, supernatant IgG captured. Put shortly: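 On a Biacore T200 run at 25° C in HBS-P+ (pH 7.4), IgG captured on Protein A was probed with His-tagged CEACAM1 by single-cycle surface plasmon resonance. Fitted Kon, koff and Kd gave a relative KD referenced to the parent antibody from the same experiment. The IgG came from filtered, ELISA-quantified supernatants of HEK EBNA cells transiently transfected with PEI and harvested after 5-7 days.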

Experiment [4] addresses T3, His-tagged CEACAM1. Kind of experiment: SPR single-cycle, purified IgG captured. A digest of the protocol: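 Surface plasmon resonance single-cycle kinetics on a Biacore T200 at 25° C in HBS-P+ (pH 7.4). Purified IgG was captured on a Series S Protein A chip and His-tagged CEACAM1 was the analyte. Reference-channel and blank-run signals were subtracted. Kon, koff and Kd were fitted, and relative KD was calculated against the parent antibody assayed in the same experiment.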

B1: chimeric antibody VH0/Vκ0 (antibody, IgG4, V domains shown)
VH: EVQLVESGGDLVKPGGSLKLACAASGFIFSSHGMSWVRQTPDKRLEWVATISSGGTYTYYPDSVKGRFTISRDNDKNTLYLQMNSLKSEDTAMYYCARHDFDYDAAWFAYWGQGTLVTVSS
VL: QIVLTQSPALMSASPGVKVTMTCSANSSVSYMYWYRQKPRSSPKPWIYLTSNLASGVPARFSGSGSGTSYSLTISSMEAEDAATYYCQQWSSNPPTFGSGTKLEIK
notes: IgG4 (S241P), kappa; also called VH0/Vκ0 (control); Chimeric VH0/Vκ0
Take B1: the binding result in experiment [1] and in experiment [2] was “no binding” throughout.

B2: VH1/Vκ8 S29A (antibody, IgG4, V domains shown)
VH: EVQLLESGGGLVQPGGSLRLSCAASGFIFSSHGMSWVRQAPGKGLEWVATISSGGTYTYYPDSVKGRFTISRDNSKNTLYLQMNSLKAEDTAMYYCARHDFDYDAAWFAYWGQGTLVTVSS
VL: EIVLTQSPATLSLSPGERATLSCRANSAVSYMYWYQQKPGQAPRPWIYLTSNRATGVPARFSGSGSGTDYTLTISSLEPEDFAVYYCQQWSSNPPTFGQGTKLEIK
notes: IgG4 (S241P), kappa; also called Parent; Parent (VH1/Vκ8 S29A)
Take B2: in the experiment with His-tagged CEACAM1 [3], the affinity, expressed as Kd, was 550 nM; the koff came out at 0.053 s⁻¹; the kon is 96000 M⁻¹ s⁻¹; the “relative KD to parent” value worked out at 1. In the experiment with His-tagged CEACAM1 [4], the Kd was determined as 480 nM, the koff was 0.19 s⁻¹, the kon turned out to be 400000 M⁻¹ s⁻¹ and the “relative KD to parent” value stood at 1.

B3: CP08H03/Vκ8 S29A (antibody, IgG4, V domains shown)
VH: EVQLLESGGGLVQPGGSLRLSCAASGFIFSSHGMSWVRQAPGKGLEWVATISSGGTYTYYPDSVKGRFTISRDNSKNTLYLQMNSLKAEDTAMYYCARHDFDYFPYWFAHWGQGTLVTVSS
VL: EIVLTQSPATLSLSPGERATLSCRANSAVSYMYWYQQKPGQAPRPWIYLTSNRATGVPARFSGSGSGTDYTLTISSLEPEDFAVYYCQQWSSNPPTFGQGTKLEIK
notes: IgG4 (S241P), kappa; also called CP08_H03/Parent VL; CP08_H03/Parental
Consider B3, for which the binding result in experiment [1] is “no binding”. Moreover, in the experiment with His-tagged CEACAM1 [3], the dissociation constant (Kd) was 130 nM, the koff amounted to 0.0085 s⁻¹, the kon was found to be 65000 M⁻¹ s⁻¹ and the “relative KD to parent” value stood at 4.2. Moreover, the binding result in experiment [2] is listed as “no binding”. Besides, in the experiment with His-tagged CEACAM1 [4], the affinity, expressed as Kd, was 120 nM; the off-rate (koff) stood at 0.0075 s⁻¹; the kon was determined as 63000 M⁻¹ s⁻¹; the “relative KD to parent” value was 4.

B4: CP08H03/CP08F05 (antibody, V domains shown)
VH: EVQLLESGGGLVQPGGSLRLSCAASGFIFSSHGMSWVRQAPGKGLEWVATISSGGTYTYYPDSVKGRFTISRDNSKNTLYLQMNSLKAEDTAMYYCARHDFDYFPYWFAHWGQGTLVTVSS
VL: EIVLTQSPATLSLSPGERATLSCRANSAVSYMYWYQQKPGQAPRPWIYLTSNRATGVPARFSGSGSGTDYTLTISSLEPEDFAVYYCQQWTSNPPTFGQGTKLEIK
notes: IgG4 (S241P), kappa
For B4, the binding result in experiment [1] was “no binding”. Also, in the experiment with His-tagged CEACAM1 [3], the Kd amounted to 110 nM, the koff is 0.0074 s⁻¹, the kon is 70000 M⁻¹ s⁻¹ and the “relative KD to parent” value turned out to be 5.2. Further, in experiment [2], the binding result is reported as “no binding”. Besides, in the experiment with His-tagged CEACAM1 [4], the Kd came to 95 nM, the koff turned out to be 0.0069 s⁻¹, the kon is 73000 M⁻¹ s⁻¹ and the “relative KD to parent” value was determined as 5.
